Tested on: MSCs
Assay: Protocol 3 differentiation of MSCs to hybrid cells with growth factors
Type: cell-based
Settings: individually and in combination, as replacements or in combination with HGF and PDGF
Protocol: A shortened third protocol (Protocol 3) was examined and was also found to produce MSC-muscle cell hybrid cells. The MSCs were cultured in normal MSC culturing conditions followed by supplementation of the media for 24 hours with 5-AZA. The cells were than grown in media supplemented with 2% horse serum and HGF and PDGF for 2 weeks. […] The following growth factors were tested both individually and in combination as replacements or in combination with HGF and PDGF: EGF, IGF1, PDGFAA, PDGFBB, and VEGF. […] Additionally, the protocol could be halted by moving the treated MSCs to non-supplemented MSC media. Hybrid cells that were produced could thus be halted from further differentiation.
All three protocols were also performed with MSCs that had first undergone myogenic priming as described above.

B1: PDGFBB: growth factor (protein, UniProt P01127 82-190, looked up)
Platelet-derived growth …: SLGSLTIAEPAMIAECKTRTEVFEISRRLIDRTNANFLVWPPCVEVQRCSGCCNNRNVQCRPTQVQLRPVQVRKIEIVRKKPIFKKATVTLEDHLACKCETVAAARPVT
modifications: BB homodimer
notes: growth factor
- production of hybrid cells from MSCs: found to produce hybrid cells

B2: EGF: growth factor (protein, UniProt P01133 23-1207, looked up)
Pro-epidermal growth factor: PQHWSCPEGTLAGNGNSTCVGPAPFLIFSHGNSIFRIDTEGTNYEQLVVDAGVSVIMDFHYNEKRIYWVDLERQLLQRVFLNGSRQERVCNIEKNVSGMAINWINEEVIWSNQQEGIITVTDMKGNNSHILLSALKYPANVAVDPVERFIFWSSEVAGSLYRADLDGVGVKALLETSEKITAVSLDVLDKRLFWIQYNREGSNSLICSCDYDGGSVHISKHPTQHNLFAMSLFGDRIFYSTWKMKTIWIANKHTGKDMVRINLHSSFVPLGELKVVHPLAQPKAEDDTWEPEQKLCKLRKGNCSSTVCGQDLQSHLCMCAEGYALSRDRKYCEDVNECAFWNHGCTLGCKNTPGSYYCTCPVGFVLLPDGKRCHQLVSCPRNVSECSHDCVLTSEGPLCFCPEGSVLERDGKTCSGCSSPDNGGCSQLCVPLSPVSWECDCFPGYDLQLDEKSCAASGPQPFLLFANSQDIRHMHFDGTDYGTLLSQQMGMVYALDHDPVENKIYFAHTALKWIERANMDGSQRERLIEEGVDVPEGLAVDWIGRRFYWTDRGKSLIGRSDLNGKRSKIITKENISQPRGIAVHPMAKRLFWTDTGINPRIESSSLQGLGRLVIASSDLIWPSGITIDFLTDKLYWCDAKQSVIEMANLDGSKRRRLTQNDVGHPFAVAVFEDYVWFSDWAMPSVMRVNKRTGKDRVRLQGSMLKPSSLVVVHPLAKPGADPCLYQNGGCEHICKKRLGTAWCSCREGFMKASDGKTCLALDGHQLLAGGEVDLKNQVTPLDILSKTRVSEDNITESQHMLVAEIMVSDQDDCAPVGCSMYARCISEGEDATCQCLKGFAGDGKLCSDIDECEMGVPVCPPASSKCINTEGGYVCRCSEGYQGDGIHCLDIDECQLGEHSCGENASCTNTEGGYTCMCAGRLSEPGLICPDSTPPPHLREDDHHYSVRNSDSECPLSHDGYCLHDGVCMYIEALDKYACNCVVGYIGERCQYRDLKWWELRHAGHGQQQKVIVVAVCVVVLVMLLLLSLWGAHYYRTQKLLSKNPKNPYEESSRDVRSRRPADTEDGMSSCPQPWFVVIKEHQDLKNGGQPVAGEDGQAADGSMQPTSWRQEPQLCGMGTEQGCWIPVSSDKGSCPQVMERSFHMPSYGTQTLEGGVEKPHSLLSANPLWQQRALDPPHQMELTQ
modifications: Pro-epidermal growth factor
- production of hybrid cells from MSCs: found to produce hybrid cells

— patent publication US10973857B2, “Mesenchymal stem cell and use thereof for treatment of muscle injury and muscle-associated diseases” (EXOSTEM BIOTEC LTD., priority 2016, dated 2021)
